Drawing on patent publication US20240092941A1 (FRED HUTCHINSON CANCER CENTER, published 2024), this text covers Kd for two molecules.

A word on the Kd: it is the constant that tells how readily two partners part at equilibrium.

The target of this assay is T1, soluble ROR1 ectodomain (UniProt Q01973 30-406, limits assumed).
T1 construct: extracellular domain
Kind of assay: method not stated in the legend of FIG. 1.

T1 sequence (Q01973 30-406 limits assumed): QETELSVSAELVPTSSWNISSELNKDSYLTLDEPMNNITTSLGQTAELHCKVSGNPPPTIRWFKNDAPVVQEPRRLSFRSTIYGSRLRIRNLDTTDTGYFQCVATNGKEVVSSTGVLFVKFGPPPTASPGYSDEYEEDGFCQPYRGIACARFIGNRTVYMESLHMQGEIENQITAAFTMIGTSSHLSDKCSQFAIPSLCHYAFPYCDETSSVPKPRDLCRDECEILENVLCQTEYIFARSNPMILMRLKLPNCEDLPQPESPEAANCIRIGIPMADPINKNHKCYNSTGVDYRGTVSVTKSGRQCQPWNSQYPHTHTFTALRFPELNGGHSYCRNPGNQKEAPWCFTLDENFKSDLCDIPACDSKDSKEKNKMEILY

B1: Nb11 WT (VHH)
VHH: QVKLVQSGGGLVQAGGSLRLSCAASGSIFSSASMGWYRQAPGKPREQVASITRDGNTYYEDDVKGRFTISRDNARSTGYLQMNSLTPEDTGVYYCNVYQLGFYDKWGQGTQVIVSS
Take B1: the Kd worked out at 2 nM.

B2: Nb14 WT (VHH)
VHH: QVKLVQSGGGLVQTGGSLRLSCAASEITFDMYSMGWYREAPGKARDAVASITNRGNTYYADSVKGRFTISRDNAKKTMYLQMNSLKPEDTAVYYCNVYRTGFSDYWGQGTQVTVSS
The molecule B2 returned a Kd of 2 nM.
